Measured values as given in the NTF2 design screens of Basanta et al. (2020).

Assay: protease stability score; higher = more stable; yeast display proteolysis, trypsin and chymotrypsin;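 also: log10 excess protease needed over predicted unfolded state with 0 meaning unfolded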

| Sequence | protease stability score |
| --- | --- |
| EERLQELAERWWKARRTGDPHKIRDLLDKDVRVEYGNKSIHGRENIAHEIVRQLKHLRLDEKVERIDRSNGHVRATLSVTVNINGQPYTYRFELRIRAHNGKVKKIELRMPEEVVRRLDT | 1.73 |
| EERQQELAKTFMEAVQSNDTTQLKRMFDKHAKVTVGDKTVSGREDASKWLSKLHKESRVQLRDVKVEVSGNKIDIKVRFEVQHNGKPREVTREMEMTFHNGKIKDLRATRTE | 0.394 |
| EERVNSVAEQFLDAVHTGDPNRVREQMDKDARMHVGDTTLHGRENMANHWKTLLDEMRITFHDYRIRVTGEEVEIRADVQYNHNGRPKRRVLTYTVEADNGKIHNWKVQEDS | 0.472 |
| EERVQKMLEDAMRTNDEVELIKSAPPNAKVVVGDKKIKGHEEAHRWAVRFKEQVDHTEIKHLDINGDKVSLDFSIVINGKKIRVVVKVTATNGKVREVHVQATSEDDQEQLKRDIK | 0.652 |
| EESAIERLKEAMKAFDHGDEDEWRQQFDKNARVQIGDKSVRGRDNMAKQIKKEKEKMRVEVKLESVHVHNGHVTADADYKEQKNGRPTSSRFQLHATFKGDKFKNMVWHKDS | -0.422 |
| EESLEHIVRTMLEQIRRGDPRDLKEMFPENARIEYGDRSIHGREEYAKTMEHKRRQARYHFQVKSIRNNGNKVELVMEVEDNHNGNPSTRRVKLTIVFHNGRIQNVEQTNKP | 1.03 |
| EESLIRLATLFMRAMETGDPKQANDLVDPNARFKIGDSVINGRERFNEWLKDLKEEMSVHYRVEHMHAEGDRVEVDFVVVYNVDGRPQRMRVKLEADLSNGRMRNVTLRFPSEEEKKIKK | 0.525 |
| EESVIKRIHQLMESNDWDQLVRQMDEDAKVEIGNFRVEGREEAEDWARKVKKQVDHLEVEDIQIRGNKVEVTMNVQVNGKTVRFDLVMEVRNGRVTSMSARFRSEDDVKIMEEMLK | 1.15 |
| EHELERQASKFAQLLRTNDFEKLLEMFDENARIEVGDKFVQGRDRIKKKLERDKTEMNRRYEDIKFTANGNTLNIKVIFTENHNGKPKRTVQLILITFRNGRIKRVEVRDDG | -0.065 |
| EHENVRLARSLIDALQQNNPQQAQENADKDVQYEVGEKRIHGREQYSDTMRKNKEQMEFRVHSVDMDEHNGRVTVNLTFIESTNGDPKQDRANLVIEFHNGRIQHVRMSKDG | -0.268 |
| EHEQSKLMEHLLRIVETGDDDEFRKNADPNVKFVYGDKEYDGREEAAKALREIKTELRFQLNDVEIRVENGVIEINYDFTANHNGRPQRRTQRATAEYDNGKLKSWSVRDDG | -0.172 |
| EKEAKTLAHHVMEALEKNDPDQMDEQLDENARVQVGDREVHGREEVNKQIKRLKKHAHFEIESVTLDVQGDKVDAQYTMRADVNGKPWRDHVTVEIHVRNGRIKELRFRMDPQRLRDFKK | 0.72 |
| EKEDLQQIARDMAKAVVSGDKEQMRRLADENARAQIGDKTLHGREKLSELIKRIRDRVDHLRLVDVRQDGDQIQVYVDLVVNGRKRRFTIEAEAHNGHIHSVTFDPRAKEFLDS | 1.79 |
| EKEEVKKAVEAFNENDEDELRDLVDENVKVVIGEKDYTGRETYWQFLRRMHEQIDHMHVKSVSVSNGVLRMDVEVVFNGRNVRFTIEVQAHDGQIKRVHYQARSEEQHKEFLKMLK | 1.58 |
| EKEIVNNFKDWVRALTTGDEDRLRNYADPNAQFVVGEKRFHGMDDYVEDMRRRRTEIRVEIRVHHMNSTGEKIEIHAEQTHEHNGKPETHEFKMKAEVHNGRHKSVTQHDDG | 0.201 |
| EKENVQSWLEAWNALRQGDEKRVEQLVDPNARMQVGDKKVEGMTRHVHKEVRKMKEIRVELDLKTVDTQGDHAVVKFRESRNHNGQPREQDVVVRMRAHNGRVQEVNVHEVS | 0.028 |
| EKEQKERLEEAQHARESGDTERLKDLFDENVQVEVGDKRVNGMEKFVKDEVKKQRDLRISVTYTEMRNDPNHVDITVEVVEDKNGEPQRRVLEINIEYENGRARMMRVRRVQ | 1.1 |
| EKEVMDTLVKIVNEGNFEDLAKMADKDVQVRIGNKNLHGKEQLQKFMERFTRQADHIRVHRYQFSNGRFQFDFVIVVNGKRFRVTMHVEVSNGRIKKLVINVTDEDAEKVLREAYG | 1.38 |

| Sequence | protease stability score |
| --- | --- |
| EKEVVELAERFIDALQTNNPDQAEENVDENVKFQYGDKSIKGRDTWNRELKKTLRDQRIQFRHVEIRSDGDKAHITAEFQVTHNGQPDKRRYKMTVEVRNGTIQRVTVQQHR | 0.17 |
| EKHVMTRITQYERNVQNGDEDTLNEMVDKDAKINIGDKTWHGMHNAAKDWKRQKDEMRLDYRSIHVTVQGDTVRIDQVVAVERNGKPSHDRNVQIWHEDNGKVKQVEQHKRP | -0.216 |
| EKSIVEFFKKWVTAQRDGDPRQHARYIDPNARLQVGDRVVNGREQAKDDQHKKRKEIKVDMRIKSISASNGTLEVNFREKVDVNGRPITREYRFRFEVRNGRITSLSNQVDKEEQKKLKK | 0.157 |
| ENHVMNNAEKYLRLLEKGDEEELVKMADPNAKFRIGDKHVHGMESFADDLFRKQKEIRMEINIKHYEVQGDHVTIKAEQEKQHDGRPRRDTNKIIMQVHNGKIKQVTFTSDG | -0.222 |
| EQDQIRRLKTFIKIIDHNNPSKVRELLDKDVHIDIGDKVIRGREEYADEIHKLQKEMRVKLQVDDIKDHGEHVHFTARWYARVNGRPRTNEIHVQARAHNGHVTSIKVHMDPRVLKEMRS | -0.027 |
| EQELRKKATEMLKVVQEGDEDRLVEYADPNVRVQVGDKVLHGQEDLRKFVQRLTKESRIHLKHVDIEVHGNKIDITVEADVEHNGRPSTDTFSMRVEMENGRAKFIQVRTSK | 1.39 |
| EQEVVHLAHRFIEAVQHNSTEDANKNVDPNAKFRVGDHVVNGREEVNEKVRKDHEKIRLQIRSVTLEDQGDKVEIRMDVEFDVNGKPLHHNLKMTVEAHNGKIVQLDNQMDPTELKELKQ | -0.152 |
| EQTFVHEFIKNVQRNNEHELKKLIDPNAKVVVGNKTFQGREQINSQLKRFKDQVDEFHVDTYHDKGDKAVIDYVRVVDGQRVHYRLIITAENGKVKSMELHVTDPEQQKTIERVLD | 1.33 |
| ERDSLKHVAREMEKNNFDEMLHNADKDVEIHYGNRSVHGHKRAQSFWERLKSRVDHISFKSYSINNGRIVMSFKVVIDGQDIEVHISIEVENGTIKHVQFQATSEEIEKLLEKLMD | 1.36 |
| ERELVSIAQDILHALEHGDPQQFRDLVDPNAKFKVGDHEWHGRESAANEYAKEQRKMNNKYDRVTWDNNGDHIRARFNWVNHSNGEPKRKQATQELVLHNGRLVSMKQDDTQ | -0.052 |
| ERERNQKLAEIFAQAVETGDPEQAQKMAPPDVKAQVGDHQFRGREEIHKMIETIRRRADHARLKDMTVDGDKITIVVQFNVNGKEVNVVFHITVRNGVATEIELRSK | 1.26 |
| EREVVQEAAKAINSNDFRRLSELMDKDVKMQYGDKTLSGREEVETLLKSLHEQIDTFTVDHYHVEGNKAEVDARFHFNGKRLRMHLYAVAHNGRIQEMKIQATTEHQQEELSRLWR | 0.613 |
| ESELDKQAEQIVRVLRTGDPEKVADNAPEDAELIIGDKTYHGREQIRDWVHTVNKQMRIQWDEFDVKVKGDKAKVEADVVYDVNGTPVEDKIVLIFVIHNGRVHAVHFDFDPEVWRSMES | 0.569 |
| ETEELHKMTELIDNMQRGNPQKFNEMVDPNAQFEVGDKTIRGREELSKELHRKRREMRRSLRSVKVRLSGNHFDIRVTFRETHNGQPDDRRQRIVIIVSNGRIKSVRVDEDG | 0 |
| ETHVINRAIEAARHGDEDTLSKLADENAHVSVGDKEFHGREQVKNALKDWHDQVDTFEMKKVEVRGNKADVKIKVVVNGRDMTMRMEINAKGESIREINFSYRDERAKHHAQNAQG | 0.169 |
| KEEDIVKVAKKLAKIVEEGNPDELKKLLSPDLEVKYGDKERHGADELVKVLKKLLRKGVRIQVKELQVEGNTATTVLEYQHGDKKHDVEIKAKLTGGRLKKLEVRFSPKAQEIVTQG | 2.02 |
| KEEDVEKVAKRLITLVQEGNVDVMRKYLAPDVEVQYGDVEVKGPDQVVKHVRDLRRQGYRVQLKEVQVEGNTAETVLDYQAGDQKYTATVKAQVKGGVLKRATVKASPEMKKVVKAG | 1.38 |
| KEETVETLWKQMVEAVQKNNEEQLKKLGKDDVKVEYGGKKYEGTEQMATQLKKFMDLGAKFELKRYKVEGNHVEADIQVHVGGKTVHVTVRVEYDGGKLKKVQVHVSEEAEEAYKKG | 1.24 |
